These results are taken from patent US20160220655A1 (BOARD OF REGENTS FOR OKLAHOMA STATE UNIVERSITY, published 2016).

The target of this assay is T1, SipB (recombinant, His-tag technology, expressed in E. coli) (Salmonella, UniProt Q56019 1-593).
T1 construct: also called first 'translocator' protein SipB from SPI-1
T1 sequence: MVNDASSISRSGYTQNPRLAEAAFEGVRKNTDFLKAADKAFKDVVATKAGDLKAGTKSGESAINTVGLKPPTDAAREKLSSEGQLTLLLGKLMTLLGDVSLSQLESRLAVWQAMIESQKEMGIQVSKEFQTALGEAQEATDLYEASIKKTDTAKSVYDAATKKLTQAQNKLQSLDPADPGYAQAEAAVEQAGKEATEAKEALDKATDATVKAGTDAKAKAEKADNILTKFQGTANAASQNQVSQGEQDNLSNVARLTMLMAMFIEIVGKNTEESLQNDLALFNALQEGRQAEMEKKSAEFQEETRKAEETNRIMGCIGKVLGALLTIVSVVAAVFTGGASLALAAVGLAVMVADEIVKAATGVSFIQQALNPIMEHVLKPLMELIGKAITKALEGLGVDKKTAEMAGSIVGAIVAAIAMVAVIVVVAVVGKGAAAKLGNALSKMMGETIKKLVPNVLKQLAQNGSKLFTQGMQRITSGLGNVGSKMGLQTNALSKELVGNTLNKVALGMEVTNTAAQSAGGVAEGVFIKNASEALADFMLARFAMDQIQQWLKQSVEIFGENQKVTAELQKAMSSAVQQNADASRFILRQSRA
The experiment in a line: co-expression in E. coli and co-purification by column chromatography.

B1: SicA, cognate chaperone of SipB (other)
chain: MDYQNNVSEERVAEMIWDAVSEGATLKDVHGIPQDMMDGLYAHAYEFYNQGRLDEAETFFRFLCIYDFYNPDYTMGLAAVCQLKKQFQKACDLYAVAFTLLKNDYRPVFFTGQCQLLMRKAAKARQCFELVNERTEDESLRAKALVYLEALKTAETEQHSEQEKE
Consider B1, for which the binding result is listed as “binds”.
